The values below are quoted from earlier work in PMC3417803.

Like-named read-outs stand apart in the source and are kept apart here.

Data set [1] has as its target Midkine (Homo sapiens) (UniProt P21741).
Data set [2] shares this target. The source holds these as a separate data set.

Chain of UniProt P21741 (P21741 21-143): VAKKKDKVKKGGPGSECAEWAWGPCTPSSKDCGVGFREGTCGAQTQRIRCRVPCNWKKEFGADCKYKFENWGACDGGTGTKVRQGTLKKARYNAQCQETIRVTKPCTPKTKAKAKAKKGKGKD

A word on the Kd: it is the constant that tells how readily two partners part at equilibrium. With PTPζ (from UniProt P23471), the results for the dissociation constant (Kd) in data set [1] and in data set [2] were 0.56 nM and 8.8 nM, respectively.
